The data set has as its system MS2 coat protein. Nature of the data set: apparent KD of MS2 coat protein; higher = weaker reporter binding. Conditions: Eterna round: R107. The method, boiled down: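 Designed RNA switches were transcribed on-chip from Illumina sequencing clusters. They were then titrated with SNAP-549-labelled MS2 coat protein (twofold steps, 0.7 or 1.5 nM to 3 µM; 0.8–1.5 h to 10–20 min per step) in 100 mM Tris-HCl pH 7.5, 80 mM KCl, 4 mM MgCl2, without or with constant ligand. Apparent KD is the per-design median of normalised cluster binding-curve fits.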

[1] abbreviates: input ligand: theophylline 20 uM.
The mark [2] stands for this setting: input ligand: tryptophan 2.4 mM.
[3] abbreviates: input ligand: theophylline 2 mM.

On to “AGUACACGAACUGAUACCAGCCGGACAUGAGGAUCACCCAUGUCCUACCUCUGUUCGGUUGGCCCUUGGCAGCAGUUCGUGUACA [Omei Theo B SS A v9]”, for which the “apparent KD of MS2 coat protein” value (input ligand: arginine 13.2 mM) was 40.5 nM, the “apparent KD of MS2 coat protein” value under setting [1] amounted to 391 nM and the “apparent KD of MS2 coat protein” value under setting [2] is 76.2 nM.
The corresponding values for “AGUACCAAUGAGGAUACCAGAGUGCGACGCCGAAACCUUGACAUGAGGAUCACCCAUGUACUCCCUUGGCAGCCUGUACUUGCCA [theeternabot_exclusion_MS2_Theo_B_17]” are 22.8 nM, 40.7 nM and 34.9 nM.
As for “AGUACUCGAACGGAUACCAGCCGGACAUGAGGAUCACCCAUGUCCUACCAUGUCUCGGUUGGCCCUUGGCAGCCGUUCGUGUACA [Omei Theo B SS A v2]”, the “apparent KD of MS2 coat protein” value was 17 nM (input ligand: arginine 13.2 mM), 469 nM under setting [1] and 95.8 nM under setting [2].
Take “AGUAGCUGCCGAAGGAGCGCCGUGUUCCUACAUGAGGAUCACCCAUGUAGCGUUGGGUUACGGCAGGUAGGUCGCGGCGGAUAGG [Same State - Arginine B / B]”: the “apparent KD of MS2 coat protein” value (input ligand: arginine 13.2 mM) turned out to be 30 nM; the “apparent KD of MS2 coat protein” value (input ligand: none) was found to be 34.3 nM; the “apparent KD of MS2 coat protein” value under setting [1] was 119 nM; the “apparent KD of MS2 coat protein” value under setting [3] worked out at 73.8 nM; the “apparent KD of MS2 coat protein” value under setting [2] amounted to 119 nM.
Consider “AGUCUUAAAGGAAGGAGCGCAGUCAUAACAUGAGGAUCACCCAUGUCGAUGUGAGGGUCAUUGCAGGUAGGUCGCCUUACUAAGA [Same State - Arginine B (Freestyle 5)]”, for which the “apparent KD of MS2 coat protein” value runs as follows: (input ligand: arginine 13.2 mM) 22.8 nM; (input ligand: none) 40.4 nM; under setting [1], 46 nM; under setting [3], 30.2 nM; under setting [2], 40.6 nM.
Regarding “AGUGUAUCCAUCGAUACCAGCCACAACGUAACAUACACAUGAGGAUCACCCAUGUUGUGUGGCCCUUGGCAGCGGUGCCUGUGUA [Same State - Theophylline B Attempt #1 (HarryS)]”, the “apparent KD of MS2 coat protein” value worked out at 14.4 nM (input ligand: arginine 13.2 mM), 16.4 nM under setting [1] and 13.9 nM under setting [2].
With “AGUGUUGUCUGAAGGAGCGGCCCUUGAUCCUCAUGAGACAUGAGGAUCACCCAUGUCUCGGGCCAGGUAGGUCGCAGGCAUCACA [Omei Arg B SS v1]”, the “apparent KD of MS2 coat protein” value turned out to be 22.6 nM (input ligand: arginine 13.2 mM); 20.5 nM (input ligand: none); 34.1 nM under setting [1]; 23.3 nM under setting [3]; 23.7 nM under setting [2].
The matching figures for “AGUUGCGUUGGAAGGAGCGGCAUGUGUGGGCCUCCUUACAAUACAUGAGGAUCACCCAUGUGCCAGGUAGGUCGCCAACACAGGU [Tiedmaqu]”: 47.9 nM, 40.2 nM, 79.8 nM, 96 nM and 54.8 nM.
Consider “AUAAAUAAUAAAUAAGAUAAAAUGGGUGAACGAGGACCGGUACGGCCGCCACUCGGACAUGAGGAUCACCCAUGUCCAUGUGAAA [#22 Exclusion Tryptophan A]”, for which the “apparent KD of MS2 coat protein” value by setting is: (input ligand: arginine 13.2 mM) 14 nM; under setting [1], 19.8 nM; under setting [3], 20.2 nM.
On to “AUAACAUGAGGAUCACCCAUGUAAGCUGAAGGAGCGGACGAAAGUCCAGGUAGGUCGCAGCGCUCCUUCACCUCAUGAGAAGGAG [(M1)-(M2)-(Arg1)-(Arg2)-(A)'-(M)'-(A)''_Design2]”, for which the “apparent KD of MS2 coat protein” value (input ligand: arginine 13.2 mM) came out at 23.4 nM; the “apparent KD of MS2 coat protein” value (input ligand: none) stood at 23 nM; the “apparent KD of MS2 coat protein” value under setting [1] is 31.4 nM; the “apparent KD of MS2 coat protein” value under setting [3] came to 25.3 nM; the “apparent KD of MS2 coat protein” value under setting [2] came out at 22.4 nM.
With “AUAACAUGAGGAUCACCCAUGUAUUGGUUACGAGGACCGGUACGGCCGCCACUCGUAUUAUAGUGGUAUUUUGUUUAUAUGAUAA [JR_Nu_TrtptoA_Sub019]”, the “apparent KD of MS2 coat protein” value is, setting by setting: (input ligand: arginine 13.2 mM) 14.8 nM; under setting [1], 20 nM; under setting [3], 18.4 nM.
With “AUACAUGAGGAUCACCCAUGUAUAGUUGAAGGAGCGACCAGAGGGUCAGGUAGGUCGCAACACAUGAGGAUCACCCAUGUAUCGA [DOUBLE!!! :-D #7]”, the “apparent KD of MS2 coat protein” value reads like this: (input ligand: arginine 13.2 mM) 30 nM; (input ligand: none) 49.9 nM; under setting [1], 52.9 nM; under setting [3], 47.5 nM; under setting [2], 34.6 nM.
The corresponding values for “AUACAUGAGGAUCACCCAUGUGAUGGCCGGCGAGGACCGGUACGGCCGCCACUCGUGAUCCGUCCCGAGAGCAAAGCUCUCGACA [Raatala]” are 4.9 nM, 53.7 nM, 436 nM, 1080 nM and 50.3 nM.
On to “AUACAUGAGGAUCACCCAUGUGAUGGCCGGCGAGGACCGGUACGGCCGCCACUCGUGAUCCGUCCUGAGAGCAAAGCCCUCAACA [Lequcele]”, for which the “apparent KD of MS2 coat protein” value is, setting by setting: (input ligand: arginine 13.2 mM) 80.1 nM; under setting [1], 450 nM; under setting [3], 199 nM.
The corresponding values for “AUACAUGAGGAUCACCCAUGUGAUGGCCGGCGAGGACCGGUACGGCCGCCACUCGUGAUCCGUCCUGAGAGCAAAGCCCUCAGCA [Onedti]” are 17.3 nM, 287 nM and 237 nM.
As for “AUACAUGAGGAUCACCCAUGUUAUAGUGAAGGAGCGACAUUUAGGUCAGGUAGGUCGCACUAUUGAAUUAUUAUCCUCUUUUCUU [JR_ExcArginiA_Sub021]”, the “apparent KD of MS2 coat protein” value is 23.1 nM (input ligand: arginine 13.2 mM); 21.3 nM (input ligand: none); 31.2 nM under setting [1]; 23.7 nM under setting [3]; 24.7 nM under setting [2].

Values taken from the supplement of paper PMC9170038.
